Experiment [1] addresses SARS-CoV RBD, His-tagged, for antibody binding studies (SARS-CoV) (UniProt P59594). In words: BLI.
Experiment [2] has as its target SARS-CoV-2 RBD, His-tagged, for antibody binding studies (SARS-CoV-2) (UniProt P0DTC2). In words: BLI.

As to COVA1-16 Fab, His-tagged, the Kd turned out to be 405 nM in experiment [1] and 46 nM in experiment [2].
For COVA1-16 IgG1 antibody, the Kd in experiment [1] was 125 nM; in experiment [2], 0.2 nM.

The values above are taken from publication PMC7687367.
